The nature of this data set: label from the status in PepcDB records.
Consider “MMKNFVCTTCGVQYAASVEEPVSCHICDEERQYVNPKGQSWTTLENLQTDDTYKNEIIKEENGLYSITTKPGFAIGQTAFVVKTESYRLLWDCITYLDETTITKIKELGGLDAIALSHPHYYSTQVEWAETFDVPIYIHEDDKEWVMRPSSRIIYWSGESLQLADGITVHRLGGHFSGGSVLHWEEGNDGKGILLTGDIIQVVADERWVSFMYSYPNLIPLPARKVEEMVNRVKPLQFNRLYNAFHRVVKENANEAVERSAERYIKAIEGKLFHT”, for which the protein production result was “failed”.

Take “MMKNMILPIAFTALIASMTACSDETDPILTQKNWDGTATYFQSSDEHGFSMYYKPQVGFVGDPMPFYDPVAKDFKVMYLQDYRPNPEATYHPIFGVATKDGATYESLGELISCGGRDEQDAAIGTGGTIYNPADKLYYTFYTGNKFKPSSDQNAQVVMVATSPDFKTWTKNRTFYLKGDTYGYDKNDFRDPFLFQTEDGVYHMLIATRKNGKGHIAEFTSADLKEWESAGTFMTMMWDRFYECPDVFKMGDWWYLIYSEQASFMRKVQYFKGRTLEDLKATTANDAGIWPDNREGMLDSRAFYAGKTASDGTNRYIWGWCPTRAGNDNGNVGDVEPEWAGNLVAQRLIQHEDGTLTLGVPDAIDRKYTSAQEVKVMAKDGNMIESGKTYTLGEGASVIFNRLKVHNKISFTVKTASNTDRFGISFVRGTDSASWYSIHVNADEGKANFEKDGDDAKYLFDNKFNIPADNEYRVTIYSDQSVCVTYINDQLSFTNRIYQMQKNPWSLCCYKGEITVSDVQVSTY”: the protein production entry is given as “failed”.

For the sequence “MMKRVNSHGSDYWRKNGCDFTDHRAFAPVKILDVAQIKENPMSEQIELIRLAIFFSVLVICALWESNRPRKTLSQSKRVRWLNNLGLVGFNSLLITALMPILAFSAAQWAQSQQFGLLYWLEIPPFIALFVAVVLLDAVIYWQHLLFHRIPLLWRLHRMHHADQDIDVTTGSRFHPLEIMISAWIKIGAVTLLGASPLAVVVFEILLNASAMFNHSNAKLPYKIDQWLRLLVVTPDMHRVHHSVLVHETHSNFGFFLSIWDKMFHTYIAQPEMGHERMKIGLPLFRQAREQWLDKMLTQPFRER”, the protein production entry is “failed”.

In the case of “MMLITERRSPFYPNIQNVPPSVIRKLVKNKAITLIDVRQPWEYEDHHIPGSILLPLDYFKELFPLVLSKNNLVKNGVAIICEHANRSTWLVYTEPSLFKEVKVYNMLGGIELWMIMGYEIEKGMDDNGTLWYKLLTKNLGLEHHHHHH”, the protein production result is “failed”.

Consider “MMLLLPEFGYVSLLLAVCVGVATALLTFSGYTLRWSGTYRLARCWTLVLFGLVLFAFVALTLSVVQDDFSVNYVAQHSHRDLPLGLKIAAVWGGHEGSLLLWLLCLSGWSATFACRYRKAMSDLFPLTLAMLAVIATALLVFIVFFSDPFVRLFPPAVAGRDLNPMLQHIGLILHPPLLYLGYGGLTVSAALALAALIHGEFTAPAAWICWRWTLPAWSLLTLGIILGSWWAYNELGWGGWWFWDPVENASLLPWLTASALLHSLSVTRMRGIFRHWSLILALLTFILCLLGTLIVRSGILVSVHAFALEHDRAVPLFILFACLSMAALAVYGWRAQLVHSAARFSGWSREMAILLVLLLFSAVALVVLLGTLYPMIYGLAGWGKISVGAPYFNRVLLPFAGLMLLLIGVAAGGYWKRSTRWPVWHLGVTLAVGVVTALVLWPYGYDVALASGLIGWVMAAQWLQPLLALRQQLPALLAHTGVVLFALGIAFSAGSKQEISANVGQGEQVTLGDYQFHFLQLDLVAAQNYTAEQAVIAIYRGDSPIARVIPERRYYNARKQQMIEPGIAWGPIREWYAVMGEKTGENRYAMRFYVQTGVRWVWGGGMLMVAGALLGWFRGRRVYD”, for which the protein production result is “failed”.

In the case of “MMLSATQPLSEKLPAHGCRHVAIIMDGNGRWAKKQGKIRAFGHKAGAKSVRRAVSFAANNGIEALTLYAFSSENWNRPAQEVSALMELFVWALDSEVKSLHRHNVRLRIIGDTSRFNSRLQERIRKSEALTAGNTGLTLNIAANYGGRWDIVQGVRQLAEKVQQGNLQPDQIDEEMLNQHVCMHELAPVDLVIRTGGEHRISNFLLWQIAYAELYFTDVLWPDFDEQDFEGALNAFANRERRFGGTEPGDETA”, the protein production result was “not failed”.

Take “MMNDIAHNLAQVRDKISAAATRCGRSPEEITLVAVSKTKPASAIAEAIDAGQRQFSEHYVQEGVDKIRHFQELGVTGLEWNFAGPLQSNKSRLVAEHFDWCITIDRLRIATRLNDQRPAELPPLNVLIQINISDENSKSGIQLAELDELAAAVAELPRLRLRGLSAIPAPESEYVRQFEVARQMAVAFAGLKTRYPHIDTLALGQSDDMEAAIAAGSTMVAIGTAIFGARDYSKKGSLEHHHHHH”: the protein production result is reported as “not failed”.

As for “MMNIRSKYAVYIFPLLLILFFVGTASALPTVAHDRVQGEMYVASTANWDSHYSTNSFDVPNGTVVFARYYVGVWASGTPSSISATFNGHAFETNPSYYISGMGVTWIPFNVTDYVQPGETNTATIDSSHWGDGRQYGSTLVVVLENENKPEVEYWIAEGLDWVIGYGSSTTYFNDTNIDLDDVDSASLYSTILTGYSSESLNGESLSGAVDSVSGAYFNYIRWDNVKDSLTAENQTIKVVGDGDYTSAVLHGLSITYKIPDLVPTSLTPSYVTPGTVNTMTATIENTDKDSPSFNVSLIADGTVVDTQDVSGIAAGGSTTVDLQWTPEGGKDSYSLTVVVDPDNSVVESEETNNELTVLVGSASVEVPVANFTAVPTSGSIPLTVNFTDQSTNSPTSWFWDFGDGENSTSQNPSHTYTSVGNHTVSLTVTNAEGSDSEVKTDYITVEVITPVAAFTADNTSGAAPFTVQFTDQSANLPAEWFWDFGDGTNSTEQNPAHTYITAGKYTVKLTTANAAGNDSEEKTDYITAYIPPVANFTATPTSGGAPLTVTFTDTSTNMPTEWLWDFGDGVNSTDQNPIHTYTSAGNYTVSFTATNSGGSDSELKTAYITVTAEAGKGGLADTAWPKFHYDLGNTGQSPYTGPQTANVVWTYTTTGEMRLGQGAVIGSDGTMYIGDRSGTLYAINPNGTLKWGTSIGTKSFPTPAIASDGTIYAGGNDKIVYAINPDGSIKWSYPVGTKSVISSPAIASDGTIYFATSTNLFALKPDGTLKWNSAVSYGGYNYFSPAIGSDGTIYLGTYGGALSAINADGTLKWTYSIPAPNNYIYDTPAIASDGTIYFGCNNANLYALNPDGTLKWTYSVGTSASQAIKSSPAIGSDGTIYFGSNNQYFYALYPDGTLKWSSKAGSFGQTTPTIGSDGTIYIDNYGSKTLYAFNPDGTVKWSYADGNYNYASPAIASDGTLYFGKGYTVYAFRDVAPVSNFTADPTSGTAPLTVNFTDQSTGSPTSWFWDFGDGANSTEQNPVHTYSVAGNYTTNLTVTNSAGTDFEVKTDYITVLEPSTPEPEPVAAFTADVTSGSAPLTVNFTDQSTGSPTSWLWDFGDGTNSTEQNPVHTYASAGSYTVNLTVENDAGSDFELKTDYIEVSEISGSTVTLYFDPESSSVAENESTEISLVASNFPAGLSGYNLTVAIDDPAVAEIVGIEYPTWALITENSTLPGTSIYMKTVDLEDSIKEEEGEVVLATLTVSGKEKGSANISIGVKRLEDDSGDSIEPALLTGTIEVTILSLLPDQEYAPKDLDGDGLYEDLTGNGEFSFVDIVAYFHNMDWIEENMPVEYFDFNGNGRIDFDDVVDMFAMI”, the protein production entry is “failed”.

On to “MMNKNKTLEYYNKNADNFAKTTINVDFYETQNRFSTLLPEHGYILDFGCGSGRDTKYFLDQGFYVDATDGSEEMCHIASNYTGIQVRRLLFEELDENKKYDGIWACSSILHLPKNELKAVFMKMLKALKEDGIIYTSFKYGDFEGERNGRYFTDFTEKTFEEFVGEIDNLQLKEEWITGDVRPGRGEEKWLNVILQKN”, for which the protein production result is “failed”.

Regarding “MMNLPKNIQQPLSLIYLDANATTQVLPQAASAALSTMETLFGNPSSSHISGLQAKQIVDKTRQQAKRIVGAAEGKIIFTSGATEGIQTAILSALVNVKKTLNKSLNNKSYSLLYGATEHKAVPESLKHWNKILEINAEIKAIPVDEKGQLDMAFIAKEVPNALMVCTMAVNNETGVYQDISLLDQTIRTNNPNVAWMVDCVQALGKTDLVLAQTSIDYAPFSGHKLYAPKGIGFMYVKEKAPFTAFIAGGGQESGLRSGTENLPGLAALSEIFSMLLGESEASFTPIKTLHLYRQQLVSALTQAFPEITFNHSFENSVATTLNFAIPGFSSKEIMDLFDAANIRVSSGSACSSKVTRSFVLDAMGLPAWQSESAIRMSFGPAMTQTEIDIACSRIVSAAQALVQSCLTLDKKNIDTQTMNTSSTTNKTELDGLVQFKAGGSCSWLYVDKKTRSAVFIDPLSEVSERLQTLLTCRGLNLVAVIDTHGHADHKSCRNGIAKKFLAEQQTEYLGWPAGAQTTTIHGQTFQYLILGDKWLIKVATPGHTDDSMSLLLCDPVTDSAEKLQVHYAFCGDLILMDSIGRSNFSTSSAPAMYSSLKLMKSLIGNNSLICPSHDYHNEFTTCLETEMKRNSLLRQVINSEIDIEEFTSKKIKMDKDIINESGSEIMCGALIGACQKVVVREYDSASLTKAVKKSSDMKLIDIREPHEYALQHDEKFTSNVPLTRLVQFVKEQQQNKEQEFVLVCRSGGRSQLAAQALARLGFENVGHLKGGYALHQY”, the protein production result was “failed”.

Turning to “MMNRVILVGRLTKDPDLRYTPNGVAVATFTLAVNRAFANQQGEREADFINCVIWRKQAENVANYLKKGSLAGVDGRLQTRNYEGQDGKRVYVTEVLAESVQFLEPRNGGGEQRGSFNQQPSGAGFGNQSSNPFGQSSNSGNQGNQGNSGFTKNDDPFSNVGQPIDISDDDLPF”, the protein production entry is listed as “failed”.

Consider “MMPPNQPLATYLDDAPSHGGMMRERRYYRAYGLTVASDVALPELEPTEPAAADILIAIGTIDMPKPSSEAATIFRFEPDRQYLAWHAVGAFLISDADRIDIEPAPGVDDALLAFPLLGPVMALLLHQRGLLVLHASAIAAAGKGAIFMGDKGAGKSTTASALIRAGHELLTDDVVALDLARPDAPMIVAGFPQIKLAADAAAAISLGRAEVRPQVHPAIEKMQHRLHGAFSGGMVPATRIYVLERGAKAAITALPGIAALPAIIKFSYVTRFGRAALSGDFAALHLRQCSAIANHVGVFRLEVPTGLDRIGEAVALVESDLAAGDLAAGRRRR”, for which the protein production result was “failed”.

With “MMQSITTFMAALGKYDFLQSALITAIMVGVMSGIIGSFIILRGMSMMGDAISHAVLPGVAVAYMLGINVLIGASVFGILAASLIGFVASRSKIKTDTSIGIVFSAFYALGFILISLAESSTNLHHILFGNILAVSDTDMMTTTVVLGLVILFVAFFYKELLITSFDPTFAKTYGLKVQLLHYALMLVLTLVTVSALQTVGIILVVAMLITPAATAFLWTERLAVMLGLSALIGVLSSVVGLYLSYTLNWASGPAIVLVAAIFFGISFIISPKQALLPTLWKGQAAARRVTA”, the protein production result is “failed”.

On to “MMRLLGILFILLSSSFNVYAQLPQVSAGSIERLTSFPSAFVPPRNIDIWLPAGYDKQQRYAVLYMHDGQMLFDATTSWNKQEWQIDEVASRLIKAGKTQPFIVVGIDNAGENRHSEYFPQQPFENLSQAQQTALYQLQRTKNQALFSQQVYSDRYLKFLVTELKPYIDSHYSVYTDAAHTFVMGSSMGGLISLYAISEYPHIFGGAACLSTHWPGTFEQQNNPIPPAFFNYMQQKLPDPSTHKLYFDHGTATLDAWYPQLQAKADKIIEAKGYTSQNWQSLIFEGAEHSEHAWAARLDIPLIFLLA”, for which the protein production result was “failed”.

In the case of “MMRQPRARTMTMRDDIRDLPANDDRMTRFLGGSPMAVAFRLILMSILVGVVLAAIGLDPWNIITSIRLLFERIWDLGFDAINGLWRYFLLGAVIVIPIWLLTRLASTPRGR”, the protein production entry is reported as “failed”.

As to “MMRTGFQGVARLVHHKALYRSPQTLPRLHLASAFGSSTDSLVARFCGEKTDLKDYALPNASWCPDMLSLYQEFLEKTKSGSWVKLPSFKSNRDHIRGLKLPFGLVAASDKQDWRLFTRSIQLEGQGYEYVIFFHPSEKKSVCLFQPGPYLEGAPGFAHGGSLAALMDETYSKTAYLAGEGLFTLSFNIKFKNLIPVGSLAVLDLQVEKIEDQKLYMSCIAQSRDKQTVYAKSSGVFLQLQLEEEQSGEQ”, the protein production entry is on record as “failed”.

Source of the values: a protein production outcome set (Wang et al. 2014).
